Measurements published in patent publication US20170079251.

Tests used:
Experiment in all cases: cell_activity
[1] = test system: btPRLR 9.13 TALEN left (synthetic); conditions: pair value; printed RVDs lack one HD relative to target
[2] = test system: btPRLR 9.13 TALEN right (synthetic); conditions: pair value, bovine fibroblasts
[3] = test system: btPRLR 9.11 TALEN left (synthetic); conditions: pair inactive, bovine fibroblasts
[4] = test system: btPRLR 9.11 TALEN right (synthetic); conditions: pair inactive, bovine fibroblasts
[5] = test system: btPRLR 9.14 TALEN left (synthetic); conditions: pair inactive, bovine fibroblasts
[6] = test system: btPRLR 9.14 TALEN right (synthetic); conditions: pair inactive, bovine fibroblasts
[7] = test system: btPRLR 9.9 TALEN left (synthetic); conditions: pair inactive, bovine fibroblasts
[8] = test system: btPRLR 9.9 TALEN right (synthetic); conditions: pair inactive, bovine fibroblasts
[9] = test system: btPRLR 9.7 TALEN left (synthetic); conditions: pair inactive, bovine fibroblasts
[10] = test system: btPRLR 9.7 TALEN right (synthetic); conditions: pair inactive; printed RVDs read the sense strand
[11] = test system: btPRLR 9.2 TALEN left (synthetic); conditions: pair inactive, bovine fibroblasts
[12] = test system: btPRLR 9.2 TALEN right (synthetic); conditions: pair inactive, bovine fibroblasts
[13] = test system: btPRLR 9.4 TALEN left (synthetic); conditions: pair inactive, but same left RVDs active in 9.5
[14] = test system: btPRLR 9.4 TALEN right (synthetic); conditions: pair inactive, bovine fibroblasts
[15] = test system: btPRLR 9.5 TALEN left (synthetic); conditions: pair value, bovine fibroblasts
[16] = test system: btPRLR 9.5 TALEN right (synthetic); conditions: pair value, bovine fibroblasts
[17] = test system: btPRLR 9.10 TALEN left (synthetic); conditions: pair inactive, bovine fibroblasts
[18] = test system: btPRLR 9.10 TALEN right (synthetic); conditions: pair inactive, bovine fibroblasts
[19] = test system: btPRLR 9.6 TALEN left (synthetic); conditions: pair inactive, bovine fibroblasts
[20] = test system: btPRLR 9.6 TALEN right (synthetic); conditions: pair inactive; one RVD printed as N, read as NN
[21] = test system: btPRLR 9.1 TALEN left (synthetic); conditions: pair value, bovine fibroblasts, TALEN mRNA
[22] = test system: btPRLR 9.1 TALEN right (synthetic); conditions: pair value, bovine fibroblasts, TALEN mRNA
[23] = test system: btPRLR 9.3 TALEN left (synthetic); conditions: pair inactive, bovine fibroblasts
[24] = test system: btPRLR 9.3 TALEN right (synthetic); conditions: pair inactive, bovine fibroblasts
[25] = test system: btPRLR 9.8 TALEN left (synthetic); conditions: pair value, bovine fibroblasts; also active in zygotes (Table VI)
[26] = test system: btPRLR 9.8 TALEN right (synthetic); conditions: pair value, bovine fibroblasts; also active in zygotes (Table VI)
[27] = test system: btPRLR 9.12 TALEN left (synthetic); conditions: pair value, bovine fibroblasts; also active in zygotes (Table VI)
[28] = test system: btPRLR 9.12 TALEN right (synthetic); conditions: pair value, bovine fibroblasts; also active in zygotes (Table VI)

## AAAAGCCTCAAAAACCATTGAAACTGGCAGGGAAGGAAAGGCAACCAAGCAG (double strand) [9.13 left site]
[1]
  activity: 6.8 % Cel-I

## AAAAGCCTCAAAAACCATTGAAACTGGCAGGGAAGGAAAGGCAACCAAGCAG (double strand) [9.13 right site]
[2]
  activity: 6.8 % Cel-I

## CAAAAACCATTGAAACTGGCAGGGAAGGAAAGGCAACCAAGCAGAGGGAGTC (double strand) [9.11 left site]
[3]
  activity: 0 % Cel-I

## CAAAAACCATTGAAACTGGCAGGGAAGGAAAGGCAACCAAGCAGAGGGAGTC (double strand) [9.11 right site]
[4]
  activity: 0 % Cel-I

## CAAAAACCATTGAAACTGGCAGGGAAGGAAAGGCAACCAAGCAGAGGGAGTC (double strand) [9.14 left site]
[5]
  activity: 0 % Cel-I

## CAAAAACCATTGAAACTGGCAGGGAAGGAAAGGCAACCAAGCAGAGGGAGTC (double strand) [9.14 right site]
[6]
  activity: 0 % Cel-I

## CAGAAGGCTGCAGTTCCAAGCCTGACCAAGACACGGTGTGGCCACG (double strand) [9.9 left site]
[7]
  activity: 0 % Cel-I

## CAGAAGGCTGCAGTTCCAAGCCTGACCAAGACACGGTGTGGCCACG (double strand) [9.9 right site]
[8]
  activity: 0 % Cel-I

## CAGACCAACATGCTTTAAAAGCCTCAAAAACCATTGAAACTGGCAG (double strand) [9.7 left site]
[9]
  activity: 0 % Cel-I

## CAGACCAACATGCTTTAAAAGCCTCAAAAACCATTGAAACTGGCAG (double strand) [9.7 right site]
[10]
  activity: 0 % Cel-I

## GCTTTAAAAGCCTCAAAAACCATTGAAACTGGCAGGGAAGGAAAGGC (double strand) [9.2 left site]
[11]
  activity: 0 % Cel-I

## GCTTTAAAAGCCTCAAAAACCATTGAAACTGGCAGGGAAGGAAAGGC (double strand) [9.2 right site]
[12]
  activity: 0 % Cel-I

## GCTTTAAAAGCCTCAAAAACCATTGAAACTGGCAGGGAAGGAAAGGCAACCA (double strand) [9.4 left site]
[13]
  activity: 0 % Cel-I

## GCTTTAAAAGCCTCAAAAACCATTGAAACTGGCAGGGAAGGAAAGGCAACCA (double strand) [9.4 right site]
[14]
  activity: 0 % Cel-I

## GCTTTAAAAGCCTCAAAAACCATTGAAACTGGCAGGGAAGGAAAGGCAACCA (double strand) [9.5 left site]
[15]
  activity: 13.9 % Cel-I

## GCTTTAAAAGCCTCAAAAACCATTGAAACTGGCAGGGAAGGAAAGGCAACCA (double strand) [9.5 right site]
[16]
  activity: 13.9 % Cel-I

## GGCCACGACCCCAAGACAAAACCCCCTTGATCTCTGCTAAACCCTTGGAAT (double strand) [9.10 left site]
[17]
  activity: 0 % Cel-I

## GGCCACGACCCCAAGACAAAACCCCCTTGATCTCTGCTAAACCCTTGGAAT (double strand) [9.10 right site]
[18]
  activity: 0 % Cel-I

## GGCCGGCACCACAGCCACTTCGCTGGACCAAACAGACCAACATGCTTT (double strand) [9.6 left site]
[19]
  activity: 0 % Cel-I

## GGCCGGCACCACAGCCACTTCGCTGGACCAAACAGACCAACATGCTTT (double strand) [9.6 right site]
[20]
  activity: 0 % Cel-I

## GGCCGGCACCACAGCCACTTCGCTGGACCAAACAGACCAACATGCTTTA (double strand) [9.1 left site]
[21]
  activity: 20.9 % Cel-I

## GGCCGGCACCACAGCCACTTCGCTGGACCAAACAGACCAACATGCTTTA (double strand) [9.1 right site]
[22]
  activity: 20.9 % Cel-I

## GGCCGGCACCACAGCCACTTCGCTGGACCAAACAGACCAACATGCTTTAA (double strand) [9.3 left site]
[23]
  activity: 0 % Cel-I

## GGCCGGCACCACAGCCACTTCGCTGGACCAAACAGACCAACATGCTTTAA (double strand) [9.3 right site]
[24]
  activity: 0 % Cel-I

## GTGGCCACGACCCCAAGACAAAACCCCCTTGATCTCTGCTAAACCCTTGG (double strand) [9.8 left site]
[25]
  activity: 10.1 % Cel-I

## GTGGCCACGACCCCAAGACAAAACCCCCTTGATCTCTGCTAAACCCTTGG (double strand) [9.8 right site]
[26]
  activity: 10.1 % Cel-I

## TCGCTGGACCAAACAGACCAACATGCTTTAAAAGCCTCAAAAACCATTG (double strand) [9.12 left site]
[27]
  activity: 15.9 % Cel-I

## TCGCTGGACCAAACAGACCAACATGCTTTAAAAGCCTCAAAAACCATTG (double strand) [9.12 right site]
[28]
  activity: 15.9 % Cel-I
